Experimental findings from US20260232827A1 (Zymeworks, published 2026) are described below.

For assay [1], the target named is T1, cynomolgus monkey NaPi2b (cynomolgus monkey, UniProt O95436 1-690 (human entry)).
T1 construct: Transfected into HEK293-6e cells (clone CL_#13433); also called Cy NaPi2b; Cyno NaPi2b
T1 chain: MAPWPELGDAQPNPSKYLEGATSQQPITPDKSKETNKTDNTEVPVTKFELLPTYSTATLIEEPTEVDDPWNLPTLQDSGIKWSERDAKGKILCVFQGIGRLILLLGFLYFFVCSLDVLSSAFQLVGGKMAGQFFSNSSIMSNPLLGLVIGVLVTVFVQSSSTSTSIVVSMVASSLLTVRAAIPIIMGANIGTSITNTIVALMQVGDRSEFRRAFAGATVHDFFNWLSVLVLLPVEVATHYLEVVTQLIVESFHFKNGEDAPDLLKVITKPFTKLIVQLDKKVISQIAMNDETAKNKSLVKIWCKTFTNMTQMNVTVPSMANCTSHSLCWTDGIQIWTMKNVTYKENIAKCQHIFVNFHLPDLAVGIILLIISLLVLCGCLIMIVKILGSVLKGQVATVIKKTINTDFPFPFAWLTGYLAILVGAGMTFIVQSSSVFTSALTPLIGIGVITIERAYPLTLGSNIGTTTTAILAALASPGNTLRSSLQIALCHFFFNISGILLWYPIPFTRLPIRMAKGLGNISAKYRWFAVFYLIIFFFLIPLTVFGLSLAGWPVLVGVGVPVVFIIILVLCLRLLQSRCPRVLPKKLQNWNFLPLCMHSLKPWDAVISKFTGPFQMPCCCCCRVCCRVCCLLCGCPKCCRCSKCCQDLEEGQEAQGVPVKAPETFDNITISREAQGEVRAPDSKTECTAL
Briefly: flow cytometry on HEK293-6e cells transfected with cynomolgus NaPi2b, apparent Kd.
Description: (§1) Following transfection, cells were seeded at 50,000 cells/well in conical-bottom 96-well plates and treated with test antibody or antibody-drug conjugate for 24 hours at 4° C. to prevent internalization. […] Following incubation and washing, fluorescence was detected by flow cytometry on a BD LSRFortessa™ Cell Analyzer (BD Biosciences, Franklin Lake, NJ) with 1,000 minimum events collected per well.

The target in assay [2] is T2, human sodium-dependent phosphate transporter 2B (NaPi2b) (human, UniProt O95436 1-690).
T2 construct: Endogenous on tumor cell lines (IGROV-1, OVCAR-3, HCC-78, TOV-21G, NCI-H441) or transfected into HEK293-6e cells with pTT5-huNaPi2b (CL_#13432); also called Hu NaPi2b; hNaPi2b
T2 sequence: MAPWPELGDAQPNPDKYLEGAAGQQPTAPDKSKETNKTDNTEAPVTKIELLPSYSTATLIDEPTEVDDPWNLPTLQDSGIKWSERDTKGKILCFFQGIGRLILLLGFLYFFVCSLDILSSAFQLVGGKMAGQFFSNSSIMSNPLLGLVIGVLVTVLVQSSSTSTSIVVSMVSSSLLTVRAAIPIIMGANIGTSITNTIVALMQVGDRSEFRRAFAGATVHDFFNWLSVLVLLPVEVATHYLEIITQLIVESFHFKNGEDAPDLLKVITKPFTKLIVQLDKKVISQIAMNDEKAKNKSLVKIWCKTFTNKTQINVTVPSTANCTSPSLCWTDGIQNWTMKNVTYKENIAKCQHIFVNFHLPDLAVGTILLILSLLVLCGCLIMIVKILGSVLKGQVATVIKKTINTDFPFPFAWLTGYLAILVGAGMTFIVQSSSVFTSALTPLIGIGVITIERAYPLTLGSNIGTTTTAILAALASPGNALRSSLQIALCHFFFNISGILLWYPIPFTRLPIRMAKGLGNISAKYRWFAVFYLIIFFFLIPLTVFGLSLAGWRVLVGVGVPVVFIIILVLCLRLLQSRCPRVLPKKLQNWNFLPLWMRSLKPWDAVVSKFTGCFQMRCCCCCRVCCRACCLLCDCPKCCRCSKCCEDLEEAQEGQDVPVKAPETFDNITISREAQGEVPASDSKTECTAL
Nature of the assay: flow cytometry on HEK293-6e cells transfected with human NaPi2b, apparent Kd.
Description: as §1

The target of assay [3] is T3, mouse NaPi2b (mouse, UniProt Q9DBP0 1-697).
T3 construct: Transfected into HEK293-6e cells (clone CL_#13476); also called Ms NaPi2b
T3 sequence: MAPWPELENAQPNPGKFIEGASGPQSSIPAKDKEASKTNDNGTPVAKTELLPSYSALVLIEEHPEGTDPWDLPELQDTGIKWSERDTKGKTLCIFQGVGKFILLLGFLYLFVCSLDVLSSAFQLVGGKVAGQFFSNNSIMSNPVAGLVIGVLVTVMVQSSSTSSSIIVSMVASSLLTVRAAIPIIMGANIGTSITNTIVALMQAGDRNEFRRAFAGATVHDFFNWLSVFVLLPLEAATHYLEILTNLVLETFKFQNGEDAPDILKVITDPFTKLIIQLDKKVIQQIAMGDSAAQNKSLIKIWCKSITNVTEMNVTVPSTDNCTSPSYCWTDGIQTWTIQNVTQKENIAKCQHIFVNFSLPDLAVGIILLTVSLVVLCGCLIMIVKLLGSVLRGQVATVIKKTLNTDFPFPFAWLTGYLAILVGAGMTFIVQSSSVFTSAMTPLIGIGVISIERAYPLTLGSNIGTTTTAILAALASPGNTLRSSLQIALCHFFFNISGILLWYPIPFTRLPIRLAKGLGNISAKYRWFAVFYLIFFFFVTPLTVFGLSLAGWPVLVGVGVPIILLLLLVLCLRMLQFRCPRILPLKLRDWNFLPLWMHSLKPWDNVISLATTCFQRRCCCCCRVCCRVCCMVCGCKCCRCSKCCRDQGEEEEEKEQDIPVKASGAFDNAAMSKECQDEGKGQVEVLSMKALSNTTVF
Briefly: flow cytometry on HEK293-6e cells transfected with mouse NaPi2b.
Description: as §1

In assay [4] the target is T2, human sodium-dependent phosphate …. Briefly: flow cytometry on HEK293-6e cells transfected with human NaPi2b, apparent Kd. This is another data set of the same source.
Description: as §1
Assay [5] shares this target. Nature of the assay: flow cytometry on HEK293-6e cells transfected with human NaPi2b.
Description: as §1
Assay [6] shares this target. Briefly: cell-based or functional assay.
For assay [7] the target is unchanged. Briefly: flow cytometry on HEK293-6e cells transfected with human NaPi2b. The source holds these as a separate data set.
Description: as §1
For assay [8], the target named is T3, mouse NaPi2b. Nature of the assay: flow cytometry on HEK293-6e cells transfected with mouse NaPi2b, apparent Kd.
Description: as §1
The target of assay [9] is T2, human sodium-dependent phosphate …. Nature of the assay: flow cytometry on IGROV-1 cells, 24 h at 4 C, anti-human IgG Fc AF647.
Description: (§2) Following incubation and washing, fluorescence was detected by flow cytometry on a BD LSRFortessa™ Cell Analyzer (BD Biosciences, Franklin Lake, NJ) with 1,000 minimum events collected per well.
The target of assay [10] is T1, cynomolgus monkey NaPi2b. Briefly: flow cytometry on HEK293-6e cells transfected with cynomolgus NaPi2b.
Description: as §1
Assay [11] deals with T2, human sodium-dependent phosphate …. Briefly: flow cytometry on OVCAR-3 cells, 24 h at 4 C, anti-human IgG Fc AF647.
Description: as §2
Assay [12] has the same target. Nature of the assay: cell-based or functional assay. The source holds these as a separate data set.
The target is the same in assay [13]. Briefly: cell-based or functional assay. This is another data set of the same source.
The target is the same in assay [14]. Briefly: cell-based or functional assay. The source holds these as a separate data set.
Assay [15] has the same target. Briefly: cell-based or functional assay. This is another data set of the same source.

Read-outs that look alike come from different tables or passages of the source.

B1: humanized anti-NaPi2b antibody variant v38591 (antibody, human IgG1, kappa)
heavy: not shown
light: DVQMTQSPSSLSASVGDRVTITCRASQDVYSYLNWYQQKPGKAVKLLIYYTSRLQSGVPSRFSGSGSGTDYTLTISSLQPEDFATYYCQQYNIFPWTFGQGTKLEIKRTVAAPSVFIFPPSDEQLKSGTASVVCLLNNFYPREAKVQWKVDNALQSGNSQESVTEQDSKDSTYSLSSTLTLSKADYEKHKVYACEVTHQGLSSPVTKSFNRGEC
notes: Human IgG1/kappa, full-size antibody; same as v29456 but the heavy chains include a C-terminal lysine; also called v38591 (H1L2); v38591 wild-type Fc
For the molecule B1, the Kd in assay [1] was 0.27 nM; in assay [2], 1.68 nM; in assay [4] it was 1.68 nM; in [8], 0.29 nM; in assay [9], 1.67 nM; in assay [11] it was 2.8 nM. For the same molecule, the Bmax in assay [3] was 385; in assay [5], 651; in assay [7], 651; in assay [9] it was 22200; in assay [10] it was 429; in assay [11], 15100. The “Internalized Fluorescence in OVCAR-3, 15 min, 100 nM” value in assay [6] amounted to 7620. In assay [6], the “Internalized Fluorescence in OVCAR-3, 4 hr, 100 nM” value turned out to be 16600. For the same molecule, the “Internalized Fluorescence in OVCAR-3, 16 hr, 100 nM” value in assay [6] was 24300. In [6], the “Internalized Fluorescence in OVCAR-3, 24 hr, 100 nM” value is 32400.

B2: v29456-MC-GGFG-AM-Compound 139 DAR 8 (antibody, human IgG1, kappa)
heavy: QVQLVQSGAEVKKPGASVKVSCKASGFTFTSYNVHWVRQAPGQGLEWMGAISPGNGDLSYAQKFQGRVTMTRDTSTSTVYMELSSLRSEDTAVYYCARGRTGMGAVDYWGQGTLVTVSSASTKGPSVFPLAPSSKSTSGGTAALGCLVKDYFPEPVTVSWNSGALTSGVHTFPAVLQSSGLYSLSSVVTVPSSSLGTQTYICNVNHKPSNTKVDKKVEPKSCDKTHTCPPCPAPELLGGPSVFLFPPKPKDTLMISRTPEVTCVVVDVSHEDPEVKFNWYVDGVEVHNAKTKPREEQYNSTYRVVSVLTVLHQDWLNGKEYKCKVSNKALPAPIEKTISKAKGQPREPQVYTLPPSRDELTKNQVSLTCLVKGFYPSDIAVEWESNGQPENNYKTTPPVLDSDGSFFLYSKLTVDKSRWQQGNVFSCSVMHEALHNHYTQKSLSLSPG
light: DVQMTQSPSSLSASVGDRVTITCRASQDVYSYLNWYQQKPGKAVKLLIYYTSRLQSGVPSRFSGSGSGTDYTLTISSLQPEDFATYYCQQYNIFPWTFGQGTKLEIKRTVAAPSVFIFPPSDEQLKSGTASVVCLLNNFYPREAKVQWKVDNALQSGNSQESVTEQDSKDSTYSLSSTLTLSKADYEKHKVYACEVTHQGLSSPVTKSFNRGEC
modifications: drug-linker MC-GGFG-AM-Compound 139 on cysteine thiols after TCEP reduction, positions not given; DAR 8.0 for the whole antibody
As to B2, in assay [12], the “EC50, in vitro cytotoxicity, 2D monolayer, IGROV-1” value turned out to be 0.39 nM and the “EC50, in vitro cytotoxicity, 2D monolayer, TOV-21G” value was 4.3 nM. Moreover, in assay [13], the “EC50, in vitro cytotoxicity, H441 spheroids” value came to 1.57 nM; the “EC50, in vitro cytotoxicity, IGROV-1 spheroids” value was 0.55 nM; the “EC50, in vitro cytotoxicity, TOV-21G spheroids” value turned out to be 0.54 nM. Further, in [14], the “EC50, in vitro cytotoxicity, IGROV-1 spheroids” value was 0.31 nM and the “EC50, in vitro cytotoxicity, TOV-21G:HDFa (1:1) spheroids” value stood at 0.24 nM.

B3: v22277 (palivizumab) (antibody, human IgG1, kappa)
heavy 1: GQVTLRESGPALVKPTQTLTLTCTFSGFSLSTSGMSVGWIRQPPGKALEWLADIWWDDKKDYNPSLKSRLTISKDTSKNQVVLKVTNMDPADTATYYCARSMITNWYFDVWGAGTTVTVSSASTKGPSVFPLAPSSKSTSGGTAALGCLVKDYFPEPVTVSWNSGALTSGVHTFPAVLQSSGLYSLSSVVTVPSSSLGTQTYICNVNHKPSNTKVDKKVEPKSCDKTHTCPPCPAPELLGGPSVFLFPPKPKDTLMISRTPEVTCVVVDVSHEDPEVKFNWYVDGVEVHNAKTKPREEQYNSTYRVVSVLTVLHQDWLNGKEYKCKVSNKALPAPIEKTISKAKGQPREPQVYVYPPSRDELTKNQVSLTCLVKGFYPSDIAVEWESNGQPENNYKTTPPVLDSDGSFALVSKLTVDKSRWQQGNVFSCSVMHEALHNHYTQKSLSLSPG
heavy 2: not shown
light: GDIQMTQSPSTLSASVGDRVTITCKSQLSVGYMHWYQQKPGKAPKLLIYDTSKLASGVPSRFSGSGSGTEFTLTISSLQPDDFATYYCFQGSGYPFTFGGGTKLEIKRTVAAPSVFIFPPSDEQLKSGTASVVCLLNNFYPREAKVQWKVDNALQSGNSQESVTEQDSKDSTYSLSSTLTLSKADYEKHKVYACEVTHQGLSSPVTKSFNRGEC
On to B3, for which, in assay [15], the “Internalized Fluorescence Fold-Over Palivizumab, IGROV-1, 4 hrs, 10 nM” value stood at 1 fold; the “Internalized Fluorescence Fold-Over Palivizumab, OVCAR-3, 4 hrs, 10 nM” value was 1 fold; the “Internalized Fluorescence Fold-Over Palivizumab, OVCAR-3, 24 hrs, 10 nM” value was found to be 1 fold.

B4: v18993 (lifastuzumab) (antibody, human IgG1, kappa)
heavy 1: GEVQLVESGGGLVQPGGSLRLSCAASGFSFSDFAMSWVRQAPGKGLEWVATIGRVAFHTYYPDSMKGRFTISRDNSKNTLYLQMNSLRAEDTAVYYCARHRGFDVGHFDFWGQGTLVTVSSASTKGPSVFPLAPSSKSTSGGTAALGCLVKDYFPEPVTVSWNSGALTSGVHTFPAVLQSSGLYSLSSVVTVPSSSLGTQTYICNVNHKPSNTKVDKKVEPKSCDKTHTCPPCPAPELLGGPSVFLFPPKPKDTLMISRTPEVTCVVVDVSHEDPEVKFNWYVDGVEVHNAKTKPREEQYNSTYRVVSVLTVLHQDWLNGKEYKCKVSNKALPAPIEKTISKAKGQPREPQVYVYPPSRDELTKNQVSLTCLVKGFYPSDIAVEWESNGQPENNYKTTPPVLDSDGSFALVSKLTVDKSRWQQGNVFSCSVMHEALHNHYTQKSLSLSPG
heavy 2: not shown
light: GDIQMTQSPSSLSASVGDRVTITCRSSETLVHSSGNTYLEWYQQKPGKAPKLLIYRVSNRFSGVPSRFSGSGSGTDFTLTISSLQPEDFATYYCFQGSFNPLTFGQGTKVEIKRTVAAPSVFIFPPSDEQLKSGTASVVCLLNNFYPREAKVQWKVDNALQSGNSQESVTEQDSKDSTYSLSSTLTLSKADYEKHKVYACEVTHQGLSSPVTKSFNRGEC
notes: Two different heavy chains (heterodimeric Fc)
B4: the Kd in assay [1] was found to be 4.71 nM; in [2] it was 5.76 nM; in [4], 5.76 nM; in assay [9] it was 2.69 nM; in assay [11], 5.79 nM. Further, the Bmax in assay [5] was found to be 678; in assay [7], 678; in [9] it was 20000; in assay [10], 424; in assay [11], 14500. For the same molecule, the “Internalized Fluorescence in OVCAR-3, 15 min, 100 nM” value in assay [6] came to 2480. In assay [6], the “Internalized Fluorescence in OVCAR-3, 4 hr, 100 nM” value amounted to 8750. In assay [6], the “Internalized Fluorescence in OVCAR-3, 16 hr, 100 nM” value was determined as 8600. Besides, the “Internalized Fluorescence in OVCAR-3, 24 hr, 100 nM” value in assay [6] stood at 13900.
